Laboratory results as given in patent US20160032259A1 (KOREA ADVANCED INSTITUTE OF SCIENCE AND TECHNOLOGY KAIST, published 2016).
Residue numbers refer to the chain shown, from its start.

B1: hVEGF-A165 (ligand, human, UniProt P15692-4 27-191, looked up)
chain: APMAEGGGQNHHEVVKFMDVYQRSYCHPIETLVDIFQEYPDEIEYIFKPSCVPLMRCGGCCNDEGLECVPTEESNITMQIMRIKPHQGQHIGEMSFLQHNKCECRPKKDRARQENPCGPCSERRKHLFVQDPQTCKCSCKNTDSRCKARQLELNERTCRCDKPRR
notes: The cell assays name only 'VEGF-A' without the isoform
B2: PlGF (ligand)
chain: LPAVPPQQWALSAGNGSSEVEVVPFQEVWGRSYCRALERLVDVVSEYPSEVEHMFSPSCVSLLRCTGCCGDENLHCVPVETANVTMQLLKIRSGDRPSYVELTFSQHVRCECRHSPGRQSPDMPGDFRADA
B3: VEGF-Trap (Fc fusion, UniProt P17948 129-230, looked up, not shown: a dimerising Fc or GST)
chain: SDTGRPFVEMYSEIPEIIHMTEGRELVIPCRVTSPNITVTLKKFPLDTLIPDGKRIIWDSRKGFIISNATYKEIGLLTCEATVNGHLYKTNYLTHRQTNTIIDVVLSPSHGIELSVGEKLVLNCTARTELNVGIDFNWEYPSSKHQHKKLVNRDLKTQSGSEMKKFLSTLTIDGVTRSDQGLYTCAASSGLMTKKNSTFVRVHEK
modifications: N-glycans at Asn61, Asn93 and Asn328
B4: VEGF-Grab1 (Fc fusion)
chain: EFGRPFVEMYSEIPEIIHMYEGRELVIPCRVTSPNITVTLKKFPLDTLIPDGKRIIWDSRKGFIISNATYKEIGLLTCEATVNGHLYKTNYLTHRQTNTIIDVQISTPSPVTLLRGHTLVLNCTRTTPLNTRVQMTWSYPDEKNKRASVRRRIDQSNSHANIFYSVLTIDKMQNKDKGLYTCRVRSGPSFKSVNTSVHIYDKALEDKTHTCPPCPAPELLGGPSVFLFPPKPKDTLMISRTPEVTCVVVDVSHEDPEVKFNWYVDGVEVHNAKTKPREEQYNSTYRVVSVLTVLHQDWLNGKEYKCKVSNKALPAPIEKTISKAKGQPREPQVYTLPPSREEMTKNQVSLTCLVKGFYPSDIAVEWESNGQPENNYKYYPPVLDSDGSFFLYSKKTVDKSRWQQGNVFSCSVMHEALHNHYTQKSLSLSPGK
modifications: O-linked glycan (HexNAc1Hex1NeuAc1) at Ser135; N-glycans at Asn61, Asn93 and Asn308; no evidence of O-glycosylation at Thr138
notes: Produced in CHO cells, protein A purified; also called G1; VEGF-Grabs
B5: VEGF-Grab3 (Fc fusion)
chain: B4 chain with R146N
modifications: O-linked glycan (HexNAc1Hex1NeuAc1) at Ser135; N-glycans at Asn61, Asn93 and Asn308; mutated Asn172 not glycosylated; no evidence of O-glycosylation at Thr138
notes: Produced in CHO cells, protein A purified; also called G3; VEGF-Grabs

How the values were obtained:
VEGF-Trap [1] = molecular target: B3; experiment: solid phase binding ELISA; hVEGF-A165 coated, Fc fusion titrated, anti-human Fc-HRP
Method: (§1) The binding affinities of VEGF-Grabs to ligands were measured by ELISA as described previously. Briefly, the MaxiSorp plates (Nunc) were coated with either hVEGF-A₁₆₅(150 ng/ml), PlGF (62.5 ng/ml), or hVEGF-B (125 ng/ml) and serially increasing amounts (0.1 nM-10 μM) of VEGF-Grabs or VEGF-Trap were added. After washing, the plates were incubated with HRP-conjugated goat anti-human Fc antibody. Then, 3,3′,5,5′-tetramethylbenzidine (TMB) solution (Sigma-Aldrich) was added and absorbance was measured by ELISA reader (BioRad) at 450 nm.

VEGF-Trap [2] = molecular target: B3; experiment: solid phase binding ELISA; PlGF coated, Fc fusion titrated, anti-human Fc-HRP
Method: as §1

hVEGF-A165 [3] = molecular target: B1; experiment: cell-based or functional assay
PlGF [4] = molecular target: B2; experiment: solid phase binding ELISA; PlGF coated, Fc fusion titrated, anti-human Fc-HRP
Method: as §1

hVEGF-A165 [5] = molecular target: B1; experiment: solid phase binding ELISA; hVEGF-A165 coated; reference VT
Method: as §1

PlGF [6] = molecular target: B2; experiment: solid phase binding ELISA; PlGF coated; reference VT
Method: as §1

hVEGF-A165 [7] = molecular target: B1; experiment: solid phase binding ELISA; hVEGF-A165 coated, Fc fusion titrated, anti-human Fc-HRP
Method: as §1

Row | Kd (VEGF-Trap [1]) [nM] | Kd (VEGF-Trap [2]) [nM] | IC50 of VEGF-A-induced proliferation of HUVECs (hVEGF-A165 [3]) [nM] | Kd (PlGF [4]) [nM] | fold more efficient than VT in inhibiting VEGF-A-induced proliferation of HUVECs (hVEGF-A165 [3]) [fold] | fold higher affinity than VT (hVEGF-A165 [5]) [fold] | fold more potent binding affinity than VT (PlGF [6]) [fold] | Kd (hVEGF-A165 [7]) [nM] | Binder
1 | 0.84 |  |  |  |  |  |  |  | B1
2 |  | 46 |  |  |  |  |  |  | B2
3 |  |  | 4.8 |  |  |  |  |  | B3
4 |  |  | 1.7 | 2.8 | 2.8 | 1.1 | 18.5 | 0.79 | B4
5 |  |  | 2.4 | 6.9 | 2 | 1.5 | 6.7 | 0.56 | B5
